Laboratory results as given in US20120058906A1 (published 2012).
Residue numbers refer to the chain shown, from its start. Each block holds one binder with its values, some of them ahead of it.

What was measured:
[1] = target: T1, Recombinant Human DLL4 (delta-like protein 4) (human, UniProt Q9NR61 27-524); assay: SPR, Fab on recombinant human DLL4; standard deviation in parentheses
T1 construct: Bought (R&D Systems Cat#1506-D4/CF); also called rHuman DLL4

[2] = target: T2, Recombinant Human DLL4 (R&D Systems, Cat#1506-D4/CF) (human, UniProt Q9NR61 27-529); assay: Surface Plasmon Resonance, recombinant human DLL4
T2 construct: Bought protein; also called rHuman DLL4; delta-like protein 4

[3] = target: T3, rHuman CD44/Fc Chimera, CF (R&D Systems Cat#3660-CD) (human, UniProt P16070 21-220); assay: MSD ECL multi-spot plate; Fab 392.5 nM; blank spot 338
T3 construct: Fc part of the bought chimera not given

[4] = target: T4, rHuman Erythropoietin R/Fc Chimera, CF (R&D Systems Cat#963-ER) (human, UniProt P19235 25-250); assay: as above
T4 construct: also called EPO R/Fc; Epo R; Fc part of the bought chimera not given
T4 sequence: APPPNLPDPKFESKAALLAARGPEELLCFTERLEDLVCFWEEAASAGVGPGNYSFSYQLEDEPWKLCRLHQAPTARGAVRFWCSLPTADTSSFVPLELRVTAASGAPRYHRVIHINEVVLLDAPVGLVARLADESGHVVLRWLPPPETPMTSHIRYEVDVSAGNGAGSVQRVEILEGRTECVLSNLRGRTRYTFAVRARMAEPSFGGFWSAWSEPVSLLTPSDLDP

[5] = target: T5, rHuman HGF R/c-MET/Fc Chimera, CF (R&D Systems Cat#358-MT/CF) (human, UniProt P08581 25-932); assay: as above
T5 construct: also called HGF R/Fc; hepatocyte growth factor receptor; Fc part of the bought chimera not given

[6] = target: T6, rHuman ErbB2/Fc Chimera, CF (R&D Systems Cat#1129-ER) (human, UniProt P04626 23-652); assay: as above
T6 construct: also called HER2/neu; human epidermal growth factor 2 receptor; Fc part of the bought chimera not given

[7] = target: T7, rHuman P-Cadherin/Fc Chimera, CF (R&D Systems Cat#861-PC) (human, UniProt P22223 108-654); assay: as above
T7 construct: Fc part of the bought chimera not given

[8] = target: T8, rHuman IGF-1 sR, (IGF-1 sR), CF (R&D Systems Cat#391-GR) (human, UniProt P08069 31-932); assay: as above
T8 construct: also called insulin-like growth factor-1 soluble receptor; IGF-R1

[9] = target: T3, rHuman CD44/Fc Chimera, CF (R&D Systems …); assay: MSD ECL multi-spot plate; Fab 24.5 nM; blank spot 149
[10] = target: T4, rHuman Erythropoietin R/Fc Chimera, CF …; assay: as above
[11] = target: T5, rHuman HGF R/c-MET/Fc Chimera, CF (R&D …); assay: as above
[12] = target: T6, rHuman ErbB2/Fc Chimera, CF (R&D …); assay: as above
[13] = target: T7, rHuman P-Cadherin/Fc Chimera, CF (R&D …); assay: as above
[14] = target: T8, rHuman IGF-1 sR, (IGF-1 sR), CF (R&D …); assay: as above
[15] = target: T3, rHuman CD44/Fc Chimera, CF (R&D Systems …); assay: MSD ECL multi-spot plate; Fab 1570 nM; blank spot 866
[16] = target: T4, rHuman Erythropoietin R/Fc Chimera, CF …; assay: as above
[17] = target: T5, rHuman HGF R/c-MET/Fc Chimera, CF (R&D …); assay: as above
[18] = target: T6, rHuman ErbB2/Fc Chimera, CF (R&D …); assay: as above
[19] = target: T7, rHuman P-Cadherin/Fc Chimera, CF (R&D …); assay: as above
[20] = target: T8, rHuman IGF-1 sR, (IGF-1 sR), CF (R&D …); assay: as above
[21] = target: T3, rHuman CD44/Fc Chimera, CF (R&D Systems …); assay: MSD ECL multi-spot plate; Fab 98.1 nM; blank spot 210
[22] = target: T4, rHuman Erythropoietin R/Fc Chimera, CF …; assay: as above
[23] = target: T5, rHuman HGF R/c-MET/Fc Chimera, CF (R&D …); assay: as above
[24] = target: T6, rHuman ErbB2/Fc Chimera, CF (R&D …); assay: as above
[25] = target: T7, rHuman P-Cadherin/Fc Chimera, CF (R&D …); assay: as above
[26] = target: T8, rHuman IGF-1 sR, (IGF-1 sR), CF (R&D …); assay: as above

Kd [2]: 38000 nM
B2: Fab VH6-1_IGHD3-3*01_IGHJ4*01 & V4-3_IGLJ4*01 (Fab, V domains shown)
VH: QVQLQQSGPGLVKPSQTLSLTCAISGDSVSSNSAAWNWIRQSPSRGLEWLGRTYYRSKWYNDYAVSVKSRITINPDTSKNQFSLQLNSVTPEDTAVYYCAREYYDFWSGYYTDYFDYWGQGTLVTVSS
VL: QPVLTQPTSLSASPGASARLTCTLRSGINLGSYRIFWYQQKPESPPRYLLSYYSDSSKHQGSGVPSRFSGSKDASSNAGILVISGLQSEDEADYYCMIWHSSASFVFGGGTQLIIL
notes: Fab from E. coli; VH joined to CH1 with Flag and His tags (Plasmid A), VL to lambda CL (Plasmid E)

Kd [1]: 4800 nM
B3: Fab VH5-51_IGHD5-18*01>3_IGHJ4*01 & V3-4_IGLJ1*01 (Fab, V domains shown)
VH: EVQLVQSGAEVKKPGESLKISCKGSGYSFTSYWIGWVRQMPGKGLEWMGIIYPGDSDTRYSPSFQGQVTISADKSISTAYLQWSSLKASDTAMYYCARRGYSYGYDYFDYWGQGTLVTVSS
VL: QTVVTQEPSFSVSPGGTVTLTCGLSSGSVSTSYYPSWYQQTPGQAPRTLIYSTNTRSSGVPDRFSGSILGNKAALTITGAQADDESDYYCVLYMGSGISYVFGTGTKVTVL
notes: Germline Fab from E. coli; VH joined to CH1 with Flag/His tags (Plasmid A), VL to lambda constant region (Plasmid E)

Kd [1]: 500 nM
koff [1]: 0.29 s⁻¹
kon [1]: 500000 M⁻¹ s⁻¹
B5: Fab VH1-46_IGHD3-10*01_IGHJ4*01 & L12_IGKJ1*01 (Fab, V domains shown)
VH: QVQLVQSGAEVKKPGASVKVSCKASGYTFTSYYMHWVRQAPGQGLEWMGIINPSGGSTSYAQKFQGRVTMTRDTSTSTVYMELSSLRSEDTAVYYCAREYYYGSGSYYNDYFDYWGQGTLVTVSS
VL: not shown

Kd [1]: 730 nM
koff [1]: 0.101 s⁻¹
kon [1]: 163000 M⁻¹ s⁻¹
B6: Fab VH1-46_IGHD6-6*01_IGHJ1*01 & L6_IGKJ1*01 (Fab, V domains shown)
VH: QVQLVQSGAEVKKPGASVKVSCKASGYTFTSYYMHWVRQAPGQGLEWMGIINPSGGSTSYAQKFQGRVTMTRDTSTSTVYMELSSLRSEDTAVYYCAREEYSSSSAEYFQHWGQGTLVTVSS
VL: not shown
notes: Germline Fab from E. coli; VH joined to CH1 with Flag/His tags (Plasmid A), VL to kappa constant region (Plasmid C)

Kd [1]: 93.1 nM
koff [1]: 0.0317 s⁻¹
kon [1]: 340000 M⁻¹ s⁻¹
B9: Fab VH1-46_IGHD6-6*01_IGHJ1*01_S102A_S103P_S104F_H111Y & L6_IGKJ1*01 (Fab, V domains shown)
VH: B6 VH with S102A, S103P, S104F, H111Y
VL: not shown
notes: Modified anti-DLL4 Fab; kappa Plasmid C)

Kd [2]: 70.6 nM
B11: Fab VH1-46_IGHD6-6*01_IGHJ1*01_S102A_S103P_S104F_H111F & L6_IGKJ1*01 (Fab, V domains shown)
VH: B6 VH with S102A, S103P, S104F, H111F
VL: not shown
notes: Modified Fab

Kd [1]: 112 nM
koff [1]: 0.0392 s⁻¹
kon [1]: 350000 M⁻¹ s⁻¹
B12: Fab VH1-46_IGHD6-6*01_IGHJ1*01_S102A_S103P_S104F & L6_IGKJ1*01_S31K (Fab, V domains shown)
VH: B6 VH with S102A, S103P, S104F
VL: EIVLTQSPATLSLSPGERATLSCRASQSVSKYLAWYQQKPGQAPRLLIYDASNRATGIPARFSGSGSGTDFTLTISSLEPEDFAVYYCQQRSNWPPWTFGQGTKVEIKR
notes: Modified anti-DLL4 Fab

Second part, the binder before the results:

B1: Fab VH6-1_IGHD3-3*01_IGHJ4*01 & V4-3_IGLJ4*01 (Fab, V domains shown)
VH: B2 VH
VL: B2 VL
notes: as for B3
Kd [1]: 38000 nM

B4: Fab VH1-46_IGHD3-10*01_IGHJ4*01 & O1_IGKJ1*01 (Fab, V domains shown)
VH: B5 VH
VL: DIVMTQTPLSLPVTPGEPASISCRSSQSLLDSDDGNTYLDWYLQKPGQSPQLLIYTLSYRASGVPDRFSGSGSGTDFTLKISRVEAEDVGVYYCMQRIEFPSWTFGQGTKVEIK
notes: It was expressed in E. coli as a Fab; The heavy chain carries CH1 from Plasmid A with Flag and His tags; The light chain carries the kappa constant region from Plasmid C
ECL signal [3]: 498 ECL signal
ECL signal [4]: 5860 ECL signal
ECL signal [5]: 581 ECL signal
ECL signal [6]: 539 ECL signal
ECL signal [7]: 459 ECL signal
ECL signal [8]: 466 ECL signal
ECL signal [9]: 267 ECL signal
ECL signal [10]: 4530 ECL signal
ECL signal [11]: 211 ECL signal
ECL signal [12]: 241 ECL signal
ECL signal [13]: 257 ECL signal
ECL signal [14]: 239 ECL signal
ECL signal [15]: 1380 ECL signal
ECL signal [16]: 6120 ECL signal
ECL signal [17]: 1640 ECL signal
ECL signal [18]: 1260 ECL signal
ECL signal [19]: 1790 ECL signal
ECL signal [20]: 1430 ECL signal
ECL signal [21]: 265 ECL signal
ECL signal [22]: 5630 ECL signal
ECL signal [23]: 335 ECL signal
ECL signal [24]: 247 ECL signal
ECL signal [25]: 347 ECL signal
ECL signal [26]: 309 ECL signal

B7: Fab VH1-46_IGHD6-6*01_IGHJ1*01_S102A_S103P_S104F & L6_IGKJ1*01 (Fab, V domains shown)
VH: B6 VH with S102A, S103P, S104F
VL: not shown
notes: as for B9
Kd [1]: 122 nM
koff [1]: 0.0492 s⁻¹
kon [1]: 405000 M⁻¹ s⁻¹

B8: Fab VH1-46_IGHD6-6*01>1_IGHJ1*01_S104F & L6_IGKJ1*01 (Fab, V domains shown)
VH: B6 VH with S104F
VL: not shown
notes: Modified Fab
Kd [2]: 388 nM

B10: Fab VH1-46_IGHD6-6*01_IGHJ1*01_S102A_S103P_S104F_H111F & L6_IGKJ1*01 (Fab, V domains shown)
VH: B6 VH with S102A, S103P, S104F, H111F
VL: not shown
notes: as for B9
Kd [1]: 70.6 nM
koff [1]: 0.03 s⁻¹
kon [1]: 425000 M⁻¹ s⁻¹

B13: Fab VH1-46_IGHD6-6*01>1_IGHJ1*01_S104F & L6_IGKJ1*01 (Fab, V domains shown)
VH: B6 VH with S104F
VL: not shown
notes: as for B9
Kd [1]: 380 nM
koff [1]: 0.19 s⁻¹
kon [1]: 500000 M⁻¹ s⁻¹
